Assay [1] concerns the target C-terminally CFP-tagged P1aABD (P1aABD-CFP). The assay is described as follows: FRET or BRET. A general note: Bioluminescence resonance energy transfer reports proximity on the nanometre scale.
The target of assay [2] is actin binding domain of plectin isoform 1a (P1aABD). Briefly: ITC. In general terms: Isothermal titration calorimetry measures the heat released or taken up as one component is titrated into another.
In the next assay the target is P1aABDΔ22. The assay is described as follows: ITC.

Substance “C-terminally yellow fluorescence protein (YFP)-tagged CaM (CaM-YFP) (from UniProt P0DP23 1-149) (natural protein)” yielded an FRET efficiency in assay [1] of 19%.
By Kd is commonly meant the equilibrium constant for the complex coming apart. Low values mean higher affinity, high ones lower affinity. In assay [2], “N-ter lobe of calmodulin (CaMNL) (from UniProt P0DP23 10-74) (domain or fragment)” had a Kd of 10.5 µM.
Take “calmodulin (CaM), full length, with Ca2+ (from UniProt P0DP23 1-149) (natural protein)”: in assay [2], the KD calculated with the competitive binding model was 2.3 µM, the Kd came out at 4.2 µM and the apparent KD in the presence of β4Fn12 (displacement) turned out to be 7.7 µM. In the assay with P1aABDΔ22, this substance came in with a Kd of 2.6 µM.

The values above are taken from article PMC4353693.
